Data from publication PMC11879689, “Integrative in silico and biochemical analyses demonstrate direct Arl3-mediated ODA16 release from the intraflagellar transport machinery” (The Journal of Biological Chemistry, 2025).
Like-named read-outs stand apart in the source and are kept apart here.

Assays:
[1] = target: CrODA16 C-terminal β-propeller, CrODA16C(80-423) (Chlamydomonas reinhardtii) (UniProt Q3Y8L7); experiment: ITC; 25 °C, MicroCal iTC200; 10 mM HEPES pH 7.5, 200 mM NaCl, 0.5 mM TCEP; 20 μM CrODA16 in the cell, 200 μM IFT46 peptide or CrIDA3 in the syringe
[2] = target: T1, full-length CrODA16 (CrODA16fl) (Chlamydomonas reinhardtii, UniProt Q3Y8L7 1-446); experiment: as above
T1 construct: ODA16, Chlamydomonas reinhardtii, full length (N-terminal domain residues 1-80, C-terminal beta-propeller residues 80-445); it may be the same protein as CrODA16-HT
T1 sequence (looked up): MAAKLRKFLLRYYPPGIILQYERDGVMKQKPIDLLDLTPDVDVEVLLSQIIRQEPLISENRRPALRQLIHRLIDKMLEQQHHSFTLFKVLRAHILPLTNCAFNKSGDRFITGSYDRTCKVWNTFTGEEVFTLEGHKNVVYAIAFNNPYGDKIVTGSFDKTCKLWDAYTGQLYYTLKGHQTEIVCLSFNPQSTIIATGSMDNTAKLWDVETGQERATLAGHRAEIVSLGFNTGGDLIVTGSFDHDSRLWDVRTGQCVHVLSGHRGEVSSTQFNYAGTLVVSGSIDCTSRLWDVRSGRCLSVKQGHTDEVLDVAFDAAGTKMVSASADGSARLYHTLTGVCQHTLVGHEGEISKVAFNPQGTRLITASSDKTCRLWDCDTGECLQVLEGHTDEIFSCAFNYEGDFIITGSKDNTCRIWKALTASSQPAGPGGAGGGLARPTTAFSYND

[3] = target: ODA16 (Chlamydomonas reinhardtii) (UniProt Q3Y8L7); experiment: ITC; conditions: cited from earlier work
[4] = target: T2, hexa-His-tagged CrODA16 (CrODA16-HT) (Chlamydomonas reinhardtii, UniProt Q3Y8L7 1-446); experiment: pull-down; CrODA16-HT (10 μM) immobilised on nickel resin, one prey (20–30 μM), 1 h 4 °C; 10 mM HEPES pH 7.5, 200 mM NaCl, 2 mM MgCl2, 1 mM DTT; eluted with 500 mM imidazole, SDS-PAGE; CrArl3 nucleotide-free; conditions: both partners purified
T2 construct: ODA16, Chlamydomonas reinhardtii; Bait on nickel resin
T2 sequence (looked up): T1 sequence (looked up)

[5] = target: T2, hexa-His-tagged CrODA16 (CrODA16-HT); experiment: pull-down; CrODA16-HT immobilised on nickel resin; two preys added together (CrIFT46 with CrIDA3, also at 3:1 excess of CrIFT46; CrIFT46 with CrArl3), beside each prey alone; conditions: both partners purified
[6] = target: T1, full-length CrODA16 (CrODA16fl); experiment: pull-down; competitive binding (titration) assay: GST-tagged bait (10 μM) pre-complexed with CrODA16 (20 μM) on GSH resin, washed, then untagged competitor at rising concentrations, 1 h 4 °C; eluted with 33 mM glutathione, SDS-PAGE; conditions: both partners purified

Work on “CrIDA3 (residues 1-166 and 241-366), untagged (domain or fragment)” yielded a Kd [1] of 288 nM, a Kd [2] of 1770 nM and a stoichiometry N [2] of 0.996.

In the case of IFT46 (from UniProt A2T2X4), the Kd [3] is listed as 200 nM.

B1: CrIFT46(23-44) peptide (peptide, UniProt A2T2X4 23-44, looked up)
peptide: RSQVVQNQPHDEEVNLSESESF
notes: IFT46, Chlamydomonas reinhardtii, residues 23-44; R23 and F44 mark the ends of the peptide; also called IFT46 peptide; source: synthetic peptide
B1 gave a Kd ([2]; both partners purified) of 1000 ± 380 nM.

B2: CrArl3_Q70L (GTP-locked, full length) (enzyme, Chlamydomonas reinhardtii, UniProt A8ISN6 1-177, looked up)
chain: MGLLSLIRGLKKKEGEARILVLGLDNAGKTTILKALSEEDITTITPTQGFNIKSLSRDGFNLKIWDIGGLKSIRPYWRNYFDQTDALIYVIDSADSKRLSESEFELTELLQEEKMTGVPLLVFANKQDLVGALAADEIASTLDLTSIRDRPWQIQACSAKQGTGLKEGMEWMMKQVK
notes: Arl3, Chlamydomonas reinhardtii, with Q70L; codon-optimised synthetic gene; Cloned with C-terminal TEV-His8; Used nucleotide-free or loaded with GTP; also called CrArl3_Q70L-FL
B2: binds [4].

B3: CrIFT46 (wild type, untagged) (natural protein, Chlamydomonas reinhardtii, UniProt A2T2X4 1-344, looked up)
chain: MDDSMDYPDRDGDDLDQFQGTARSQVVQNQPHDEEVNLSESESFAGADEPPAAPRDASLIESHDMDEGPAAPARTLSPTGYEAGKHAPGGIANSDEAPPGAYNAQEYKHLNVGEDVRELFSYIGRYKPQTVELDTRIKPFIPDYIPAVGGIDEFIKVPRPDTKPDYLGLKVLDEPAAKQSDPTVLTLQLRQLSKEAPGAKADMVGRLEHTDENKAKKIQQWIASINDIHKAKPAATVNYSKRMPEIEALMQEWPPEVETFLKTMHMPSGDVELDIKTYARLVCTLLDIPVYDDPVESLHVLFTLYLEFKNNPIFRQHMEMENKLDGMSGGGGGMMGGGADVLGL
notes: IFT46, Chlamydomonas reinhardtii; also called WT CrIFT46
B3: binds [5]; binds [6].

B4: GST-CrIFT46 (natural protein, Chlamydomonas reinhardtii, UniProt A2T2X4 1-344, looked up)
chain: B3 chain
notes: IFT46, Chlamydomonas reinhardtii; also called GST-tagged CrIFT46
B4: binds [6].
